Experimental data taken from US20260265381A1 (Hoffmann-La Roche, published 2026).

Experiments:
[1] = target: T1, recombinant single-chain HLA-G monomer/human HLA-G β2M MHC class I complex (human); assay: SPR single cycle kinetics (Biacore T200, 25 C); antibody captured via Fc on CM3 chip, HLA-G complex as analyte
T1 construct: also called wt-HLA-G complex; wt-HLA-G antigen

[2] = target: T2, human HLA-G expressed on cells (JEG3 cells, natural; SKOV3 cells transfected with recombinant HLA-G) (human, UniProt P17693 25-338); assay: cell-based or functional assay
[3] = target: T2, human HLA-G expressed on cells (JEG3 …); assay: flow cytometry, cell binding on SKOV3 HLA-G cells
[4] = target: T2, human HLA-G expressed on cells (JEG3 …); assay: cell-based or functional assay; remark: listed apart in the source
[5] = target: T2, human HLA-G expressed on cells (JEG3 …); assay: flow cytometry, cell binding on JEG3 cells
[6] = target: T3, human CD3 expressed on cells (Jurkat NFAT reporter cells; human T cells isolated from PBMCs) (human, UniProt P07766 23-207); assay: flow cytometry on human T cells isolated from PBMCs; detection with Alexa Fluor 488 anti-human IgG
T3 construct: on cells it is part of the CD3/TCR complex; also called CD3 on Jurkat cells; CD3 expressed on T-cells
T3 sequence (P07766 23-207 limits assumed): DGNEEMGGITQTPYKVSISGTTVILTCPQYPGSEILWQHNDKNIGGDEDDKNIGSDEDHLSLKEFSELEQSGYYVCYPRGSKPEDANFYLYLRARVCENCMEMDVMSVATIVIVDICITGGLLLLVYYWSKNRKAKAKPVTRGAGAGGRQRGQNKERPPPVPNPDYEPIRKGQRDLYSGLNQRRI

| Binder | Kd [1] [nM] | koff [1] [s⁻¹] | kon [1] [M⁻¹ s⁻¹] | t½ [1] [min] | IFNgamma induction EC50 (nM), JEG3 [2] [nM] | IFNgamma induction EC50 (nM), SKOV3 HLA-G [2] [nM] | EC50 [3] [nM] | T cell mediated cytotoxicity induction EC50 (nM), JEG3 (Caspase 8 activation) [4] [nM] | T cell mediated cytotoxicity induction EC50 (nM), SKOV3 HLA-G (Caspase 8 activation) [4] [nM] | EC50 [5] [nM] | binding result [6] |
| --- | --- | --- | --- | --- | --- | --- | --- | --- | --- | --- | --- |
| HLA-G-0090-VL-N31D (antibody, IgG1, V domains shown, also called HLA-G-0090-N31D) VH: QVQLQQSGPGLLKPSQTLSLTCAISGDSVSSNRAAWNWIRQSPSRGLEWLGRTYYRSKWYNDYAVSVQGRITLIPDTSKNQFSLRLNSVTPEDTAVYYCASVRAVAPFDYWGQGVLVTVSS VL: not shown | 20.2 | 0.00391 | 194000 | 2.96 |  |  |  |  |  |  |  |
| HLA-G-0090-VL-N31Q (antibody, IgG1, V domains shown, also called HLA-G-0090-N31Q) VH: QVQLQQSGPGLLKPSQTLSLTCAISGDSVSSNRAAWNWIRQSPSRGLEWLGRTYYRSKWYNDYAVSVQGRITLIPDTSKNQFSLRLNSVTPEDTAVYYCASVRAVAPFDYWGQGVLVTVSS VL: not shown | 2 | 0.00373 | 1.91e+06 | 3.1 |  |  |  |  |  |  |  |
| HLA-G-0090-VL-N31Y (antibody, IgG1, V domains shown, also called HLA-G-0090-N31Y) VH: QVQLQQSGPGLLKPSQTLSLTCAISGDSVSSNRAAWNWIRQSPSRGLEWLGRTYYRSKWYNDYAVSVQGRITLIPDTSKNQFSLRLNSVTPEDTAVYYCASVRAVAPFDYWGQGVLVTVSS VL: not shown | 2 | 0.00107 | 549000 | 10.8 |  |  |  |  |  |  |  |
| HLA-G-0090-VL-N31Y-N38Y (antibody, IgG1, V domains shown, also called HLA-G-0090-VL-N31Y-N38Y-GL; HLA-G-0090-N31Y-N38Y) VH: QVQLQQSGPGLLKPSQTLSLTCAISGDSVSSNRAAWNWIRQSPSRGLEWLGRTYYRSKWYNDYAVSVQGRITLIPDTSKNQFSLRLNSVTPEDTAVYYCASVRAVAPFDYWGQGVLVTVSS VL: not shown | 23.6 |  |  | 0 |  |  |  |  |  |  |  |
| HLA-G-0090-VL-N31S (antibody, IgG1, V domains shown, also called HLA-G-0090-N31S) VH: QVQLQQSGPGLLKPSQTLSLTCAISGDSVSSNRAAWNWIRQSPSRGLEWLGRTYYRSKWYNDYAVSVQGRITLIPDTSKNQFSLRLNSVTPEDTAVYYCASVRAVAPFDYWGQGVLVTVSS VL: not shown | 2.4 | 0.000922 | 383000 | 12.5 |  |  |  |  |  |  |  |
| HLA-G-0090-VL-N31L (antibody, IgG1, V domains shown, also called HLA-G-0090-N31L) VH: QVQLQQSGPGLLKPSQTLSLTCAISGDSVSSNRAAWNWIRQSPSRGLEWLGRTYYRSKWYNDYAVSVQGRITLIPDTSKNQFSLRLNSVTPEDTAVYYCASVRAVAPFDYWGQGVLVTVSS VL: not shown | 1.7 | 0.00871 | 5.28e+06 | 1.33 |  |  |  |  |  |  |  |
| HLA-G-0090-VL-N31T (antibody, IgG1, V domains shown, also called HLA-G-0090-N31T) VH: QVQLQQSGPGLLKPSQTLSLTCAISGDSVSSNRAAWNWIRQSPSRGLEWLGRTYYRSKWYNDYAVSVQGRITLIPDTSKNQFSLRLNSVTPEDTAVYYCASVRAVAPFDYWGQGVLVTVSS VL: not shown | 2.3 | 0.000769 | 342000 | 15 |  |  |  |  |  |  |  |
| P1AF7977 (HLA-G-0090-VL-S32P/CD3 P035-093 (P035)) (bispecific antibody, human IgG1, kappa, L234A L235A, 2+1 T cell bispecific: light chain 1 is the crossed VH(CD3)-CL chain, light chain 2 the HLA-G light chain (two copies, CLM-00046); also called HLA-G TCB) light 1: EVQLLESGGGLVQPGGSLRLSCAASGFTFSSYAMNWVRQAPGKGLEWVSRIRSKYNNYATYYADSVKGRFTISRDDSKNTLYLQMNSLRAEDTAVYYCVRASNFPASYVSYFAYWGQGTLVTVSSASVAAPSVFIFPPSDEQLKSGTASVVCLLNNFYPREAKVQWKVDNALQSGNSQESVTEQDSKDSTYSLSSTLTLSKADYEKHKVYACEVTHQGLSSPVTKSFNRGEC light 2: not shown heavy 1: QVQLQQSGPGLLKPSQTLSLTCAISGDSVSSNRAAWNWIRQSPSRGLEWLGRTYYRSKWYNDYAVSVQGRITLIPDTSKNQFSLRLNSVTPEDTAVYYCASVRAVAPFDYWGQGVLVTVSSASTKGPSVFPLAPSSKSTSGGTAALGCLVEDYFPEPVTVSWNSGALTSGVHTFPAVLQSSGLYSLSSVVTVPSSSLGTQTYICNVNHKPSNTKVDEKVEPKSCDKTHTCPPCPAPEAAGGPSVFLFPPKPKDTLMISRTPEVTCVVVDVSHEDPEVKFNWYVDGVEVHNAKTKPREEQYNSTYRVVSVLTVLHQDWLNGKEYKCKVSNKALGAPIEKTISKAKGQPREPQVCTLPPSRDELTKNQVSLSCAVKGFYPSDIAVEWESNGQPENNYKTTPPVLDSDGSFFLVSKLTVDKSRWQQGNVFSCSVMHEALHNHYTQKSLSLSP heavy 2: not shown |  |  |  |  | 20 | 30 | 1.5 | 12 | 1.4 | 0.42 | binds |
| P1AF7979 (HLA-G-0090-VL-S32P/CD3 V9) (bispecific antibody, human IgG1, kappa, L234A L235A, 2+1 T cell bispecific: light chain 1 is the crossed VH(CD3)-CL chain, light chain 2 the HLA-G light chain (two copies, CLM-00046); also called HLA-G TCB) light 1: EVQLVESGGGLVQPGGSLRLSCAASGYSFTGYTMNWVRQAPGKGLEWVALINPYKGVSTYNQKFKDRFTISVDKSKNTAYLQMNSLRAEDTAVYYCARSGYYGDSDWYFDVWGQGTLVTVSSASVAAPSVFIFPPSDEQLKSGTASVVCLLNNFYPREAKVQWKVDNALQSGNSQESVTEQDSKDSTYSLSSTLTLSKADYEKHKVYACEVTHQGLSSPVTKSFNRGEC light 2: not shown heavy 1: QVQLQQSGPGLLKPSQTLSLTCAISGDSVSSNRAAWNWIRQSPSRGLEWLGRTYYRSKWYNDYAVSVQGRITLIPDTSKNQFSLRLNSVTPEDTAVYYCASVRAVAPFDYWGQGVLVTVSSASTKGPSVFPLAPSSKSTSGGTAALGCLVEDYFPEPVTVSWNSGALTSGVHTFPAVLQSSGLYSLSSVVTVPSSSLGTQTYICNVNHKPSNTKVDEKVEPKSCDKTHTCPPCPAPEAAGGPSVFLFPPKPKDTLMISRTPEVTCVVVDVSHEDPEVKFNWYVDGVEVHNAKTKPREEQYNSTYRVVSVLTVLHQDWLNGKEYKCKVSNKALGAPIEKTISKAKGQPREPQVCTLPPSRDELTKNQVSLSCAVKGFYPSDIAVEWESNGQPENNYKTTPPVLDSDGSFFLVSKLTVDKSRWQQGNVFSCSVMHEALHNHYTQKSLSLSP heavy 2: not shown |  |  |  |  | 29 | 16 | 0.58 | 4.6 | 1 | 0.36 | binds |
| P1AF7978 (HLA-G-0090-VL-S32P/CD3 Clone 22 (Cl22)) (bispecific antibody, human IgG1, kappa, L234A L235A, 2+1 T cell bispecific: light chain 1 is the crossed VH(CD3)-CL chain, light chain 2 the HLA-G light chain (two copies, CLM-00046); also called HLA-G-0090-VL-S32P/CD3 Cl22; HLA-G TCB) light 1: EVQLLESGGGLVQPGGSLRLSCAASGFQFSSYAMNWVRQAPGKGLEWVSRIRSKYNNYATYYADSVKGRFTISRDDSKNTLYLQMNSLRAEDTAVYYCVRHTTFPSSYVSYYGYWGQGTLVTVSSASVAAPSVFIFPPSDEQLKSGTASVVCLLNNFYPREAKVQWKVDNALQSGNSQESVTEQDSKDSTYSLSSTLTLSKADYEKHKVYACEVTHQGLSSPVTKSFNRGEC light 2: not shown heavy 1: QVQLQQSGPGLLKPSQTLSLTCAISGDSVSSNRAAWNWIRQSPSRGLEWLGRTYYRSKWYNDYAVSVQGRITLIPDTSKNQFSLRLNSVTPEDTAVYYCASVRAVAPFDYWGQGVLVTVSSASTKGPSVFPLAPSSKSTSGGTAALGCLVEDYFPEPVTVSWNSGALTSGVHTFPAVLQSSGLYSLSSVVTVPSSSLGTQTYICNVNHKPSNTKVDEKVEPKSCDKTHTCPPCPAPEAAGGPSVFLFPPKPKDTLMISRTPEVTCVVVDVSHEDPEVKFNWYVDGVEVHNAKTKPREEQYNSTYRVVSVLTVLHQDWLNGKEYKCKVSNKALGAPIEKTISKAKGQPREPQVCTLPPSRDELTKNQVSLSCAVKGFYPSDIAVEWESNGQPENNYKTTPPVLDSDGSFFLVSKLTVDKSRWQQGNVFSCSVMHEALHNHYTQKSLSLSP heavy 2: not shown |  |  |  |  | 2.2 | 2.6 | 0.15 | 2.6 | 1.36 | 0.12 | binds |
